Laboratory results published in the Human Domainome abundance scans (Beltran et al. 2025).
± gives the uncertainty stated by the source.

B1: Tumor protein 63, residues 545 to 610; numbered along this chain, Q9H3D4 (parent)
chain: TDCSIVSFLARLGCSSCLDYFTTQGLTTIYQIEHYSMDDLASLKIPEQFRHAIWKGILDHRQLHEF

Variants of: B1
Test: abundance fitness (aPCA) (normalised: wild type 0, dead -1); higher = more abundant; growth selection in yeast, the domain comes from the species named
Conditions: Homo sapiens

Variant | abundance fitness
TDCYIVSFLARLGCSSCLDYFTTQGLTTIYQIEHYSMDDLASLKIPEQFRHAIWKGILDHRQLHEF [S4Y] | -0.164 ± 0.034
TDCKIVSFLARLGCSSCLDYFTTQGLTTIYQIEHYSMDDLASLKIPEQFRHAIWKGILDHRQLHEF [S4K] | -0.075 ± 0.029
TDCQIVSFLARLGCSSCLDYFTTQGLTTIYQIEHYSMDDLASLKIPEQFRHAIWKGILDHRQLHEF [S4Q] | -0.078 ± 0.03
TDCCIVSFLARLGCSSCLDYFTTQGLTTIYQIEHYSMDDLASLKIPEQFRHAIWKGILDHRQLHEF [S4C] | -0.16 ± 0.03
TDCGIVSFLARLGCSSCLDYFTTQGLTTIYQIEHYSMDDLASLKIPEQFRHAIWKGILDHRQLHEF [S4G] | -0.104 ± 0.019
TDCTIVSFLARLGCSSCLDYFTTQGLTTIYQIEHYSMDDLASLKIPEQFRHAIWKGILDHRQLHEF [S4T] | -0.04 ± 0.019
TDCFIVSFLARLGCSSCLDYFTTQGLTTIYQIEHYSMDDLASLKIPEQFRHAIWKGILDHRQLHEF [S4F] | -0.158 ± 0.026
TDCEIVSFLARLGCSSCLDYFTTQGLTTIYQIEHYSMDDLASLKIPEQFRHAIWKGILDHRQLHEF [S4E] | -0.066 ± 0.026
TDCMIVSFLARLGCSSCLDYFTTQGLTTIYQIEHYSMDDLASLKIPEQFRHAIWKGILDHRQLHEF [S4M] | -0.063 ± 0.021
TDCVIVSFLARLGCSSCLDYFTTQGLTTIYQIEHYSMDDLASLKIPEQFRHAIWKGILDHRQLHEF [S4V] | -0.632 ± 0.027
TDCHIVSFLARLGCSSCLDYFTTQGLTTIYQIEHYSMDDLASLKIPEQFRHAIWKGILDHRQLHEF [S4H] | -0.114 ± 0.029
TDCDIVSFLARLGCSSCLDYFTTQGLTTIYQIEHYSMDDLASLKIPEQFRHAIWKGILDHRQLHEF [S4D] | -0.05 ± 0.027
TDCSIVSQLARLGCSSCLDYFTTQGLTTIYQIEHYSMDDLASLKIPEQFRHAIWKGILDHRQLHEF [F8Q] | -0.835 ± 0.064
TDCSIVSILARLGCSSCLDYFTTQGLTTIYQIEHYSMDDLASLKIPEQFRHAIWKGILDHRQLHEF [F8I] | -0.272 ± 0.019
TDCSIVSELARLGCSSCLDYFTTQGLTTIYQIEHYSMDDLASLKIPEQFRHAIWKGILDHRQLHEF [F8E] | -0.711 ± 0.056
TDCSIVSRLARLGCSSCLDYFTTQGLTTIYQIEHYSMDDLASLKIPEQFRHAIWKGILDHRQLHEF [F8R] | -0.918 ± 0.079
TDCSIVSGLARLGCSSCLDYFTTQGLTTIYQIEHYSMDDLASLKIPEQFRHAIWKGILDHRQLHEF [F8G] | -1.01 ± 0.084
TDCSIVSCLARLGCSSCLDYFTTQGLTTIYQIEHYSMDDLASLKIPEQFRHAIWKGILDHRQLHEF [F8C] | -0.583 ± 0.12
TDCSIVSALARLGCSSCLDYFTTQGLTTIYQIEHYSMDDLASLKIPEQFRHAIWKGILDHRQLHEF [F8A] | -0.58 ± 0.034
TDCSIVSPLARLGCSSCLDYFTTQGLTTIYQIEHYSMDDLASLKIPEQFRHAIWKGILDHRQLHEF [F8P] | -0.938 ± 0.091
TDCSIVSKLARLGCSSCLDYFTTQGLTTIYQIEHYSMDDLASLKIPEQFRHAIWKGILDHRQLHEF [F8K] | -0.961 ± 0.19

Variant | abundance fitness
TDCSIVSMLARLGCSSCLDYFTTQGLTTIYQIEHYSMDDLASLKIPEQFRHAIWKGILDHRQLHEF [F8M] | -0.029 ± 0.027
TDCSIVSLLARLGCSSCLDYFTTQGLTTIYQIEHYSMDDLASLKIPEQFRHAIWKGILDHRQLHEF [F8L] | -0.052 ± 0.022
TDCSIVSHLARLGCSSCLDYFTTQGLTTIYQIEHYSMDDLASLKIPEQFRHAIWKGILDHRQLHEF [F8H] | -0.41 ± 0.14
TDCSIVSNLARLGCSSCLDYFTTQGLTTIYQIEHYSMDDLASLKIPEQFRHAIWKGILDHRQLHEF [F8N] | -0.796 ± 0.069
TDCSQVSFLARLGCSSCLDYFTTQGLTTIYQIEHYSMDDLASLKIPEQFRHAIWKGILDHRQLHEF [I5Q] | -0.973 ± 0.081
TDCSFVSFLARLGCSSCLDYFTTQGLTTIYQIEHYSMDDLASLKIPEQFRHAIWKGILDHRQLHEF [I5F] | -0.362 ± 0.029
TDCSGVSFLARLGCSSCLDYFTTQGLTTIYQIEHYSMDDLASLKIPEQFRHAIWKGILDHRQLHEF [I5G] | -0.878 ± 0.052
TDCSMVSFLARLGCSSCLDYFTTQGLTTIYQIEHYSMDDLASLKIPEQFRHAIWKGILDHRQLHEF [I5M] | -0.021 ± 0.027
TDCSNVSFLARLGCSSCLDYFTTQGLTTIYQIEHYSMDDLASLKIPEQFRHAIWKGILDHRQLHEF [I5N] | -0.915 ± 0.089
TDCSDVSFLARLGCSSCLDYFTTQGLTTIYQIEHYSMDDLASLKIPEQFRHAIWKGILDHRQLHEF [I5D] | -0.997 ± 0.1
TDCSPVSFLARLGCSSCLDYFTTQGLTTIYQIEHYSMDDLASLKIPEQFRHAIWKGILDHRQLHEF [I5P] | -1.04 ± 0.085
TDCSSVSFLARLGCSSCLDYFTTQGLTTIYQIEHYSMDDLASLKIPEQFRHAIWKGILDHRQLHEF [I5S] | -0.856 ± 0.036
TDCSVVSFLARLGCSSCLDYFTTQGLTTIYQIEHYSMDDLASLKIPEQFRHAIWKGILDHRQLHEF [I5V] | -0.096 ± 0.02
TDCSTVSFLARLGCSSCLDYFTTQGLTTIYQIEHYSMDDLASLKIPEQFRHAIWKGILDHRQLHEF [I5T] | -0.479 ± 0.025
TDCSLVSFLARLGCSSCLDYFTTQGLTTIYQIEHYSMDDLASLKIPEQFRHAIWKGILDHRQLHEF [I5L] | -0.005 ± 0.022
TDCSRVSFLARLGCSSCLDYFTTQGLTTIYQIEHYSMDDLASLKIPEQFRHAIWKGILDHRQLHEF [I5R] | -1.01 ± 0.054
TDCSYVSFLARLGCSSCLDYFTTQGLTTIYQIEHYSMDDLASLKIPEQFRHAIWKGILDHRQLHEF [I5Y] | -0.971 ± 0.093
TDCSKVSFLARLGCSSCLDYFTTQGLTTIYQIEHYSMDDLASLKIPEQFRHAIWKGILDHRQLHEF [I5K] | -0.921 ± 0.067
TDCSHVSFLARLGCSSCLDYFTTQGLTTIYQIEHYSMDDLASLKIPEQFRHAIWKGILDHRQLHEF [I5H] | -0.647 ± 0.066
TDCSEVSFLARLGCSSCLDYFTTQGLTTIYQIEHYSMDDLASLKIPEQFRHAIWKGILDHRQLHEF [I5E] | -0.976 ± 0.071
